Laboratory results reported in paper PMC8026774 (Cellular and molecular neurobiology, 2020).
Where no end group is shown, it is not given here.

Key:
MOR-1 (untagged) = MOR-1 (untagged) (mouse, UniProt P42866 1-398); assay: radioligand binding
MOR-1-PK [1] = target: T1, MOR-1-PK (mouse, UniProt P42866 1-398); assay: radioligand binding
MOR-TR-PK = MOR-TR-PK (mouse); assay: cell-based or functional assay
MOR-1-PK [2] = target: T1, MOR-1-PK; assay: cell-based or functional assay
MOR-1A-PK = MOR-1A-PK (mouse); assay: cell-based or functional assay
Sequence of MOR-1A-PK (mouse) (P42866 whole entry): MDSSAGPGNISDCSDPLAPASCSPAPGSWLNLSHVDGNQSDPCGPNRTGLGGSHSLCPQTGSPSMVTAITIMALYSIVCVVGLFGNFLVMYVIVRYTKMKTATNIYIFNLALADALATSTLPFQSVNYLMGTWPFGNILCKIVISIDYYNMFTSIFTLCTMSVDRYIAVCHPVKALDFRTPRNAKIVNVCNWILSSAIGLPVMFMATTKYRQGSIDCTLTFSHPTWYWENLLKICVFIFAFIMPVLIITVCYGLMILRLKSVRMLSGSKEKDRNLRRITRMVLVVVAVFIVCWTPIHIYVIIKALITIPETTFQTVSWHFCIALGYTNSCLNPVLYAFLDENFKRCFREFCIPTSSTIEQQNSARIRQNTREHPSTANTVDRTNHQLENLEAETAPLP

MOR-1B1-PK = MOR-1B1-PK (mouse); assay: cell-based or functional assay
Sequence of MOR-1B1-PK (mouse) (P42866 whole entry): as above

MOR-1E-PK = MOR-1E-PK (mouse); assay: cell-based or functional assay
Sequence of MOR-1E-PK (mouse) (P42866 whole entry): as above

T1 sequence (P42866 whole entry): as above
Sequence of MOR-TR-PK (mouse) (P42866 whole entry): as above
Sequence of MOR-1 (untagged) (P42866 whole entry): as above

YGGFMTSEKSQTPLVTLFKNAIIKNAYKKGE (not fully specified) [β-endorphin]
Ki (MOR-1 (untagged)): 6.22 nM | Ki (MOR-1-PK [1]): 10.4 nM | [35S]GTPγS binding (G-protein activation), EC50 (MOR-TR-PK): 691 nM | [35S]GTPγS binding (G-protein activation), EC50 (MOR-1-PK [2]): 118 nM | [35S]GTPγS binding (G-protein activation), EC50 (MOR-1A-PK): 112 nM | [35S]GTPγS binding (G-protein activation), EC50 (MOR-1B1-PK): 141 nM | [35S]GTPγS binding (G-protein activation), EC50 (MOR-1E-PK): 23 nM
